The values below come from paper PMC9704045, “Qualification of a Biolayer Interferometry Assay to Support AZD7442 Resistance Monitoring” (Microbiology Spectrum, 2022).

The assay concerns the target T1, wild-type HexaPro (D614) SARS-CoV-2 spike trimer (SARS-CoV-2, wild type (D614), stabilised).
T1 construct: also called wild-type trimer
The assay can be described thus: BLI; Octet Red384; […]; analyte ([…]; HBS-EP+ buffer; 1:1 binding model. The following applies: one partner purified.

B1: tixagevimab (AZD8895), full-length IgG (antibody, V domains shown)
VH: QMQLVQSGPEVKKPGTSVKVSCKASGFTFMSSAVQWVRQARGQRLEWIGWIVIGSGNTNYAQKFQERVTITRDMSTSTAYMELSSLRSEDTAVYYCAAPYCSSISCNDGFDIWGQGTMVTVSS
VL: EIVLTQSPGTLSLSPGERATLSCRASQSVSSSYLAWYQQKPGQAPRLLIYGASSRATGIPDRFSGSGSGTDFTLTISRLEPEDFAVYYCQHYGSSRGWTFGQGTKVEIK
notes: also called component of AZD7442 (Evusheld); copies: 2 + 2
In general, Kd refers to a measure of binding affinity in units of concentration. Read a low Kd as a tighter complex. B1 had a Kd of 0.491 nM.
